Experiment [1] addresses 4-1BB on engineered 4-1BB-expressing effector cells (luciferase reporter assay) (UniProt Q07011). As to the kind of experiment: cell-based or functional assay.
The target in experiment [2] is 4-1BB on engineered 4-1BB-expressing effector cells (luciferase reporter assay) (UniProt Q07011 24-255, limits assumed). As to the kind of experiment: cell-based or functional assay.
The target in experiment [3] is T1, recombinant mouse 4-1BB protein (mouse, UniProt P20334 24-187).
T1 sequence (looked up): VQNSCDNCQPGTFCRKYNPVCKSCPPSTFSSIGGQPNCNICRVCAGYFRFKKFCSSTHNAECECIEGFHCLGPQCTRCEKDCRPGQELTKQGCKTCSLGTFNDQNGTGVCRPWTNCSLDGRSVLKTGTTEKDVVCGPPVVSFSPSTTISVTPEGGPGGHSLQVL
As to the kind of experiment: ELISA, plates coated with recombinant 4-1BB, detection with goat α-human Fcγ-HRP. (In general: In an ELISA, binding on a coated surface is turned into a signal by an enzyme label.)
Method: Cross-reactivity was assessed using ELISA. Briefly, plates were coated with recombinant 4-1BB proteins derived from either human, cynomolgus monkey, or mouse. Plates were then washed, blocked, and incubated with bovine serum albumin (BSA), along with a series of known concentrations of α-4-1BB IgGs/MBs. The plate was then washed and incubated with a Goat α-human Fcy-HRP secondary antibody to detect bound IgG/MB. The plates were then washed again and developed with TMB substrate to detect HRP and read at OD 450 nm.

With “Urelumab MB (effector-silent α-4-1BB Multabody displaying scFabs based on urelumab)”, in experiment [1], the EC50 (nM) + Fc (4-1BB agonism, luciferase reporter, with FcγRIIb CHO-K1 cells) was determined as 0.079 nM and the EC50 (nM) - Fc (4-1BB agonism, luciferase reporter, without Fc crosslinking) was 0.087 nM.

B1: NM21 IgG1 (parent IgG of Fab #1) (antibody, V domains shown)
VH: EVQLVESGGGLVQPGGSLRLSCAASGFSFSANYYPCWVRQAPGKGLEWIGCIYGGSSDITYDANWTKGRFTISRDNSKNTVYLQMNSLRAEDTAVYYCARSAWYSGWGGDLWGQGTLVTVSS
VL: DIQMTQSPSSLSASVGDRVTITCQASQSISNRLAWYQQKPGKAPKLLIYSASTLASGVPSRFSGSGSGTDFTLTISSLQPEDFATYYCQSTYYGNDGNAFGTGTKVTVLG
B1: the “EC50 (nM) + Fc (4-1BB agonism, luciferase reporter, with FcγRIIb CHO-K1 cells)” value (“EC50 (nM) + Fc” below) in experiment [2] came out at 0.258 nM.

B2: effector silent α-4-1BB (AG10058; Fab #3) MB (protein, part only; not given: Fab constants, linkers, ferritin carriers, not shown: another chain or arm of the molecule; a dimerising Fc or GST; large carriers; small tags and cut ends)
VH: EVQLVESGGGLVQPGGSLRLSCAASGFSLSTSGVGVGWIRQAPGKGLEWLALIDWDDDKYYSPSLKSRLTISRDNSKNTLYLQLNSLRAEDTAVYYCARGGSDTVLGDWFAYWGQGTLVTVSS
VL: DIQLTQSPSSLSASVGDRVTITCRASQSVSPYLAWYQQKPGKAPKLLIYDASSLESGVPSRFSGSGSGTDFTLTISSLQPEDFATYYCQQGYSLWTFGQGTKVEIK
modifications: Self-assembled ferritin nanocage (Multabody) made from scFab-hFTL, scFab-N_hFTL and scFc(LLRAL)-C_hFTL fusions, with genes mixed 2:1:1. The letters do not carry this multivalent display.
In the case of B2, in experiment [1], the EC50 (nM) + Fc (4-1BB agonism, luciferase reporter, with FcγRIIb CHO-K1 cells) was 0.019 nM and the EC50 (nM) - Fc (4-1BB agonism, luciferase reporter, without Fc crosslinking) was 0.02 nM.

B3: AG10058 IgG (IgG4; parent IgG of Fab #3) (antibody, V domains shown)
VH: EVQLVESGGGLVQPGGSLRLSCAASGFSLSTSGVGVGWIRQAPGKGLEWLALIDWDDDKYYSPSLKSRLTISRDNSKNTLYLQLNSLRAEDTAVYYCARGGSDTVLGDWFAYWGQGTLVTVSS
VL: DIQLTQSPSSLSASVGDRVTITCRASQSVSPYLAWYQQKPGKAPKLLIYDASSLESGVPSRFSGSGSGTDFTLTISSLQPEDFATYYCQQGYSLWTFGQGTKVEIK
notes: also called Fab #3 IgG
With B3, the “EC50 (nM) + Fc” value in experiment [2] came out at 0.346 nM. Further, the binding result in experiment [3] is recorded as “binds”.

B4: Urelumab IgG4 (antibody, V domains shown)
VH: QVQLQQWGAGLLKPSETLSLTCAVYGGSFSGYYWSWIRQSPEKGLEWIGEINHGGYVTYNPSLESRVTISVDTSKNQFSLKLSSVTAADTAVYYCARDYGPGNYDWYFDLWGRGTLVTVSS
VL: EIVLTQSPATLSLSPGERATLSCRASQSVSSYLAWYQQKPGQAPRLLIYDASNRATGIPARFSGSGSGTDFTLTISSLEPEDFAVYYCQQRSNWPPALTFGGGTKVEIK
Turning to B4, in experiment [2], the “EC50 (nM) + Fc” value was 0.25 nM and the “EC50 (nM) - Fc (4-1BB agonism, luciferase reporter, without Fc crosslinking)” value stood at 0.442 nM.

(Values after patent US20260209370A1 (RADIANT BIOTHERAPEUTICS, published 2026).)
